Experimental data: US8067220B2, “Alternative crystal form of monoacylglycerol lipase (MGLL)” (Janssen Pharmaceutica N.V., priority 2008, dated 2011)

B1: wt-MGLL.1-303: wild-type human MGLL isoform 2, amino acids 1-303, with N-terminal His tag and TEV site (protein)
chain: MVDHHHHHHENLYFQGMPEESSPRRTPQSIPYQDLPHLVNADGQYLFCRYWKPTGTPKALIFVSHGAGEHSGRYEELARMLMGLDLLVFAHDHVGHGQSEGERMVVSDFHVFVRDVLQHVDSMQKDYPGLPVFLLGHSMGGAIAILTAAERPGHFAGMVLISPLVLANPESATTFKVLAAKVLNLVLPNLSLGPIDSSVLSRNKTEVDIYNSDPLICRAGLKVCFGIQLLNAVSRVERALPKLTVPFLLLQGSADRLCDSKGAYLLMELAKSQDKTLKIYEGAYHVLHKELPEVTNSVFHEINMWVSQRTATAGTASPP
modifications: N-terminal His tag and TEV site
notes: wild-type human MGLL isoform 2, amino acids 1-303, with N-terminal His tag and TEV site
B2: mut-MGLL. 1-303, L169S, L176S: human MGLL 1-303 with cap-domain mutations L169S, L176S (protein)
chain: GMPEESSPRRTPQSIPYQDLPHLVNADGQYLFCRYWKPTGTPKALIFVSHGAGEHSGRYEELARMLMGLDLLVFAHDHVGHGQSEGERMVVSDFHVFVRDVLQHVDSMQKDYPGLPVFLLGHSMGGAIAILTAAERPGHFAGMVLISPLVLANPESATTFKVLAAKVLNSVLPNLSSGPIDSSVLSRNKTEVDIYNSDPLICRAGLKVCFGIQLLNAVSRVERALPKLTVPFLLLQGSADRLCDSKGAYLLMELAKSQDKTLKIYEGAYHVLHKELPEVTNSVFHEINMWVSQRTATAGTASPP

Legend:
[1] = tested on: MGLL; test: Hydrolysis of coumarin arachidonate (C-A), apparent kcat/KM at [S]<<KM; assay type: biochemical, human; conditions: estimated; limited by solubility of C-A
Excerpt: (§1) A small fluorescent substrate, 4-methyl coumarin butyrate (4MC-B) was used to compare the activity of the engineered mutants to the activity of wt-MGLL (hMGLL 1-303) (SEQ ID NO: 3). The catalytic efficiency (kcat/KM) for the hydrolysis of the 4MC-B was similar for wt-MGLL (hMGLL 1-303) (SEQ ID NO: 3) and all MGLL mutants tested (Table 2). A larger more aliphatic fluorescent substrate, Coumarin Arachidonate (C-A), structurally more closely related to the MGLL natural substrate, 2-AG, was used to compare the activity of wt-MGLL (hMGLL 1-303) (SEQ ID NO: 3) to TEV protease cleaved mut-MGLL (hMGLL 1-303 L169S, L176S) (SEQ ID NO: 5).
(§2) The Michaelis-Menten parameters for the hydrolysis of 4-methylcoumarin butyrate (4MC-B) and coumarin arachidonate (C-A) substrate were determined using 4-5 nM of MGLL in 20 mM Pipes pH 7 and 150 mM NaCl at 37° C. The change in fluorescence due to substrate hydrolysis was monitored using excitation/emission wavelengths of 335/440 in a Safire II instrument from Tecan. The hyperbolic rates versus substrate concentration curves for the hydrolysis of 4MC-B were fit to the Michaelis-Menten equation using Excel.
The apparent kcat/Km ratio for the hydrolysis of C-A was determined at [S]<<KM. […] The kcat/KM values reported are the average from independent values determined from five substrate concentrations ranging from 700 to 40 nM.

[2] = tested on: MGLL; test: Thermofluor thermal stability assay; assay type: physicochemical, human; conditions: Thermofluor, 1,8-ANS; for midpoint of the melting transition (Tm): 0.05 mg/ml protein, Pipes pH 7
Excerpt: (§3) Thermofluor® assays detect small changes in the intrinsic melting temperature of proteins based on binding of ligands. Compounds that interact preferentially with the native form of the protein will increase the Tm, the temperature at which half of the protein is unfolded (Pantoliano et al. 2001). The technique monitors changes in the fluorescent intensity of dyes such as 1-anilinonaphthalene-8-sulfonic acid (1,8-ANS). The fluorescent dyes are quenched in aqueous environments but increase in fluorescence on binding to the hydrophobic core of denatured proteins.
as §3, with “The Thermofluor®” for “Thermofluor®”, “assay is a powerful tool to screen for small molecule inhibitors interacting with a protein's active site or allosteric site. The assay detects” for “assays detect”
Thermofluor® assays were conducted to characterize wt-MGLL (hMGLL 1-303) (SEQ ID NO: 3) and mut-MGLL (hMGLL 1-303 L169S, L176S) and evaluate if the MGLL mutants could be used for high-throughput screening using Thermofluor®. Three microliters of protein at a concentration of 0.05 mg/ml in 50 mM Pipes pH 7, 200 mM NaCl, 100 μM 1,8-ANS, and 0.001% Tween was added to pre-dispensed compound plates. Wells were overlaid with silicone oil (1 μL, Fluka, type DC 200) to prevent evaporation. Final compound concentrations varied from 150 to 0.15 μM. Assay plates were heated at a rate of 1° C./min for all experiments over a temperature range sufficient to measure protein unfolding. Fluorescence was measured by continuous illumination with UV light (Hamamatsu LC6) supplied via fiber optic and filtered through a custom band-pass filter (380-400 nm; >6 OD cutoff). Fluorescence emission was detected by measuring light intensity using a CCD camera (Sensys, Roper Scientific) filtered to detect emission at 500±25 nm, resulting in simultaneous and independent readings of all 384 wells. One or more images were collected at each temperature, and the sum of the pixel intensity in a given area of the assay plate was recorded vs temperature, and fit to standard equations to yield the Tm.

[3] = tested on: MGLL; test: Michaelis-Menten kinetics, hydrolysis of 4-methylcoumarin butyrate (4MC-B); assay type: biochemical, human; conditions: substrate 4MC-B; 4-5 nM MGLL, 20 mM Pipes pH 7, 150 mM NaCl, 37° C.; average of 2 or 4 assays
Excerpt: as §1, §2

[4] = Size exclusion chromatography of protein purified in the absence of detergent; assay type: physicochemical
Experimental: A pilot purification of wt-MGLL (hMGLL 1-303) (SEQ ID NO: 3), performed in the complete absence of detergent, generated no protein (data not shown). A second purification of wt-MGLL (hMGLL 1-303) (SEQ ID NO: 3) was done with detergent in the lysis buffer only. Frozen cell pellets for wt-MGLL (hMGLL 1-303) (SEQ ID NO: 3) were thawed, resuspended, and lysed in Bugbuster® lysis buffer for 1 hour at 4° C. Bugbuster® lysis buffer is a proprietary lysis buffer from […] that contains detergent. The lysate was clarified by centrifugation at 40,000×g for 1 hr. No detergent was added at this point or during the rest of the purification. From this point forward, the purification protocol and buffers were the same as described below for mut-MGLL. An average of 2.2 mg of wt-MGLL (hMGLL 1-303) (SEQ ID NO: 3) per liter of cell culture was obtained.
Mutant MGLL (mut-MGLL) constructs were purified in the absence of detergent. […] Fractions were analysed by SDS-PAGE. […] Purification yields were determined by Bradford assay using the protein assay kit from BioRad according to manufacturer's instruction with BSA as a standard (Bradford 1976).

[5] = Circular dichroism (CD) structural analysis; assay type: physicochemical; conditions: 5 μM protein, 10 mM cacodylic acid pH 7, 140 mM NaCl, 200 to 260 nm
Experimental: Circular dichroism experiments were performed on a Circular Dichroism Spectrometer Model 202 from Aviv Instruments Inc. The CD scans of wt-MGLL (hMGLL 1-303) (SEQ ID NO: 3) and TEV protease cleaved mut-MGLL (hMGLL 1-303 L169S, L176S) (SEQ ID NO: 5) (5 μM protein in 10 mM cacodylic acid pH 7 and 140 mM NaCl) were measured from 200 to 260 nm. Temperature melts were monitored at 210 nm.

Molecule | Km [1] [µM] | quality of Thermofluor melting transition [2] | midpoint of the melting transition (Tm) [2] [°C] | Kcat [3] [s⁻¹] | Km [3] [µM] | aggregation by size exclusion [4] [%] | CD scan compared with wt-MGLL purified in the presence of detergent [5] | monomer by size exclusion [4] [%]
CCCCC/C=C/C/C=C\C/C=C/C/C=C/CCCC(=O)Oc1ccc2ccc(=O)oc2c1 [C-A, Coumarin Arachidonate] | > 30 |  |  |  |  |  |  | 
B1 |  | very poor transition | 58 | 1.13 | 162 | 100 |  | 
B2 |  | strong transition | 56.7 | 0.8 | 136 |  | similar | 90
